Results: patent US20260069676A1 (University of California, published 2026)

Biological target: T1, MHC I (H2Kb) on dendritic cells (;mouse, UniProt P01887 21-119; P01901 22-369)
T1 construct: whole, on cells; also called MHC I molecules of DC2.4 cells
T1 sequence (MHC heavy): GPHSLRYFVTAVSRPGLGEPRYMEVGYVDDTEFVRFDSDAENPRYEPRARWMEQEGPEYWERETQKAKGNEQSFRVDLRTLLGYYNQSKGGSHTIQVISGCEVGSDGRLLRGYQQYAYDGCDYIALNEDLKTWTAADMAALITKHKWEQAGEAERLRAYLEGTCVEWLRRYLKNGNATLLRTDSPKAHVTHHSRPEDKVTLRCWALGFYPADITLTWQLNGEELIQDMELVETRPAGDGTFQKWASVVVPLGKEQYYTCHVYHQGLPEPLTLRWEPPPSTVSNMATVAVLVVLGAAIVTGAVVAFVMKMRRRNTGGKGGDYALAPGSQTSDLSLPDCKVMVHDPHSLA
T1 sequence (b2m): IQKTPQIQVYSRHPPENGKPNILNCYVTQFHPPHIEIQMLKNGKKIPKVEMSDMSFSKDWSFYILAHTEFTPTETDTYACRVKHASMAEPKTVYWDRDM
Assay: competition with pre-loaded SIINFEKL on dendritic cells, flow cytometry with SIINFEKL/H2Kb-specific antibody

B1: LTDEMIAQY peptide (MHC I peptide, SARS-CoV-2 spike T cell epitope) (peptide)
peptide: LTDEMIAQY
notes: Synthetic peptide (Anaspec), derived from the SARS-CoV-2 spike protein; also called LTD peptide (MHC I); LTD-MHC I peptide
- binding result: binds
